Laboratory results taken from patent US20200347127A1 (CRESCENDO BIOLOGICS, published 2020).
“And” between values parts separate entries of the source, which are not always exact repeats. Equal values may be shown once. Read-outs that look alike come from different tables or passages of the source.

What was measured:
[1] = molecular target: T1, recombinant human IL-17A (human, UniProt Q16552 24-155); experiment: competition ELISA, IL-17A binding to coated IL-17RA-Fc
T1 construct: Bought recombinant protein (Peprotech AF-200-17); also called Peprotech AF-200-17

[2] = molecular target: T1, recombinant human IL-17A; experiment: cell-based or functional assay
[3] = molecular target: T1, recombinant human IL-17A; experiment: SPR (BIAcore T200), IL-17A coupled to CM5 chip, single-cycle kinetics
[4] = molecular target: T1, recombinant human IL-17A; experiment: as above; remark: listed apart in the source
[5] = molecular target: T1, recombinant human IL-17A; experiment: cell-based or functional assay; remark: listed apart in the source
[6] = molecular target: T2, murine IL-17A (murine, UniProt Q62386 26-158, limits assumed); experiment: specificity ELISA on coated antigen, VH concentration not given
T2 sequence (looked up): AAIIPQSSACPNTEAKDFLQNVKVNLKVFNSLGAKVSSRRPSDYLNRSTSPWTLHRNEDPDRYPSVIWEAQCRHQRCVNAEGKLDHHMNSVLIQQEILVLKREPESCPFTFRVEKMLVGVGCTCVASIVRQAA

[7] = molecular target: T3, recombinant IL-17RA-Fc (UniProt Q96F46 33-320); experiment: as above
T3 construct: Bought reagent; also called R & D systems cat #177-IR-100; receptor; not shown: Fc part of the bought fusion, not described

[8] = molecular target: T4, IL-17C (UniProt Q9P0M4 19-197, limits assumed); experiment: as above
T4 sequence (looked up): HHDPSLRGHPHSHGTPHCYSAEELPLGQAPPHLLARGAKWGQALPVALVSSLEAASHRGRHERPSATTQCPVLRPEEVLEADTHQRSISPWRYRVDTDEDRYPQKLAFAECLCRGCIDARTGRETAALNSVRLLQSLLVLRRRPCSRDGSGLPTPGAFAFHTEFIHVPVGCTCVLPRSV

[9] = molecular target: T5, IL-17F (UniProt Q96PD4 31-163, limits assumed); experiment: as above
T5 sequence (looked up): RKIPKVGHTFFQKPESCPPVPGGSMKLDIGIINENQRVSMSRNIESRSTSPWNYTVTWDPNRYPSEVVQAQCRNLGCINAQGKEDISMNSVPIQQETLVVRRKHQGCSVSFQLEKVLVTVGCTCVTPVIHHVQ

[10] = molecular target: T1, recombinant human IL-17A; experiment: BIAcore single-cycle kinetics on immobilised IL-17A, 1:1 binding fit

T1 sequence (Q16552 24-155): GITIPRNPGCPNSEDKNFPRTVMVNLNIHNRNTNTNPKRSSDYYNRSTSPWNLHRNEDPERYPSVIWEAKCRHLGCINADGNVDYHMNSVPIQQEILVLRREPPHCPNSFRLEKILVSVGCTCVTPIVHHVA

B1: Clone 3.11 (VHH)
VHH: QVQLVQSGAEVKKPGASVKVSCKASGYNFDAYHINWVRQAPGQGLEWMGSIKPNSGATKYAQKFQGRVTITRDTSISTAYMELSRLRSDDTAVYYCASLDRDTWYPHSYFGWFDSWGQGTLVTVSS
notes: Human single VH domain
[1]
  IC50: 8 nM
[2]
  Cell assay IC50 (nM), IL-17A-induced IL6 release from HT1080: 17 nM
[3]
  Kd: 0.44 nM
  koff: 0.000237 s⁻¹
  kon: 538000 M⁻¹ s⁻¹

B2: Clone 3.13 (VHH)
VHH: QVQLVQSGAEVKKPGASVKVSCKASGYNFDAYHINWVRQAPGQGLEWMGSIKPNSGATKYAQKFQGRVTITRDTSISTAYMELSRLRSDDTAVYYCASLDRDTWYPHSYAGWFDSWGQGTLVTVSS
notes: Human single VH domain
[1]
  IC50: 2 nM
[2]
  Cell assay IC50 (nM), IL-17A-induced IL6 release from HT1080: 5 nM
[3]
  Kd: 0.197 nM
  koff: 0.000201 s⁻¹
  kon: 1.02e+06 M⁻¹ s⁻¹

B3: Clone 3.9 (VHH)
VHH: QVQLVQSGAEVKKPGASVKVSCKASGYNFDAYHINWVRQAPGQGLEWMGSIKPNSGATKYAQKFQGRVTITRDTSISTAYMELSRLRSDDTAVYYCASMDRDYYDTSGYFGWFDSWGQGTLVTVSS
notes: Human single VH domain
[1]
  IC50: 43 nM
[2]
  Cell assay IC50 (nM), IL-17A-induced IL6 release from HT1080: 182 nM
[3]
  Kd: 21 nM
  koff: 0.00201 s⁻¹
  kon: 96400 M⁻¹ s⁻¹

B4: Clone 3.3 (VHH)
VHH: QVQLVQSGAEVKKPGASVKVSCAASGYTFTDYYLHWVRQAPGQGLEWMGWINPNTGTTKYAREFEGRVTMTRDTSISTAYMELSRLRSDDTAVYYCASMDRDYYDTSGYFGWFDSWGQGTLVTVSS
notes: Human single VH domain
[1]
  IC50: 271 nM
[2]
  Cell assay IC50 (nM), IL-17A-induced IL6 release from HT1080: 106 nM
[3]
  Kd: 29 nM
  koff: 0.00285 s⁻¹
  kon: 99800 M⁻¹ s⁻¹

B5: Clone 3.6 (VHH)
VHH: QVQLVQSGAEVKKPGASVKVSCAASGYTFTDYYLHWVRQAPGQGLEWMGWINPNTGTTKYAREFEGRVTMTRDTSISTAYMELSRLRSDDTAVYYCASLDRDWRSPNDYYGWFDSWGQGTLVTVSS
notes: Human single VH domain
[1]
  IC50: 3 nM
[2]
  Cell assay IC50 (nM), IL-17A-induced IL6 release from HT1080: 28 nM
[3]
  Kd: 0.838 nM
  koff: 0.00048 s⁻¹
  kon: 573000 M⁻¹ s⁻¹

B6: Clone 3.5 (VHH)
VHH: QVQLVQSGAEVKKPGASVKVSCAASGYTFTDYYLHWVRQAPGQGLEWMGWINPNTGTTKYAREFEGRVTMTRDTSISTAYMELSRLRSDDTAVYYCASLDRDWRSPNDYFGWFDSWGQGTLVTVSS
notes: Human single VH domain
[1]
  IC50: 4 nM
[2]
  Cell assay IC50 (nM), IL-17A-induced IL6 release from HT1080: 26 nM
[3]
  Kd: 2.2 nM
  koff: 0.000619 s⁻¹
  kon: 281000 M⁻¹ s⁻¹

B7: Clone 1.8 (VHH)
VHH: QVQLVESGGGLVQPGGSLRLSCAASGFTFSSYGMYWVRQAPGKGLEWVAKIEQDGSEKYYVDSVKGRFTISRDNAKNSLFLQMNSLRAEDTAVYYCAKGEILPLYFDYWGQGTLVTVSS
notes: Human single VH domain
[4]
  Kd: 0.616 nM
  koff: 0.000429 s⁻¹
  kon: 697000 M⁻¹ s⁻¹
[5]
  Cell assay IC50 (nM), IL-17A-induced IL6 release from HT1080: 1.2 nM

B8: VH 1.3.1 (clone 1.3 expressed from phagemid vector: with linker residues and His tag) (VHH)
VHH: EVQLVESGGGLVQPGGSLRLSCAASGFTFSSYSMYWVRQAPGKGLEWVAEIKQDGSVQYYVDSVKGRFTISRDNAKNSLYLQMNSLRAEDTAVYYCAKGEILPLYFDYWGQGTLVTVSS
notes: Human single VH domain; also called Clone 1.3 prep 1; Clone 1.3 prep 2
[4]
  Kd: 0.627 nM and 0.23 nM
  koff: 0.000501 s⁻¹ and 0.000222 s⁻¹
  kon: 799000 M⁻¹ s⁻¹ and 964000 M⁻¹ s⁻¹
[6]
  binding result: binds
[7]
  binding result: no binding
[8]
  binding result: no binding
[9]
  binding result: no binding

B9: Clone 1.11 (VHH)
VHH: EVQLVESGGGLVQPGGSLRLSCAASGFTFSSYQMYWVRQAPGKGLEWVASIKQDGSEEYYVDSVKGRFTISRDNAKNSLFLQMNSLRAEDTAVYYCAKGEILPLYFDYWGQGTLVTVSS
notes: Human single VH domain
[4]
  Kd: 0.845 nM
  koff: 0.000521 s⁻¹
  kon: 617000 M⁻¹ s⁻¹
[5]
  Cell assay IC50 (nM), IL-17A-induced IL6 release from HT1080: 1.5 nM

B10: VH 1.2.2 (+HIS) (VHH)
VHH: EVQLVESGGGLVQPGGSLRLSCAASGFTFSSYSMYWVRQAPGKGLEWVAEIKQDGSVQYYVSDVKGRFTISRDNAKNSLYLQMNSLRAEDTAVYYCAKGEILPLYFDYWGQGTLVTVSS
notes: also called 1.2.2 (clone 1.2 with C terminal extension and His tag)
[10]
  Kd: 0.55 nM
  koff: 0.000485 s⁻¹
  kon: 874000 M⁻¹ s⁻¹

B11: Clone 1.14 (VHH)
VHH: EVQLVESGGGLVQRGGSLRLSCAASGFTFSSYRMYWVRQAPGKGLEWVASIEQDGSEEYYVDSVKGRFTISRDNAKKSLFLQMNSLRAEDTAVYYCAKGEILPLYFDYWGQGTLVTVSS
notes: Human single VH domain
[4]
  Kd: 0.913 nM
  koff: 0.000688 s⁻¹
  kon: 753000 M⁻¹ s⁻¹
[5]
  Cell assay IC50 (nM), IL-17A-induced IL6 release from HT1080: 2.9 nM

B12: Clone 1.22 (VHH)
VHH: EVQLVESGGGLVRPGGSLRLSCAASGFTFSSYGMYWVRQAPGKGLEWVAKIEQDGSEEYYVDSVKGRFTISRDNAKKSLYLQMNSLRAEDTAVYYCAKGEILPLYFDYWGQGTLVTVSS
notes: Human single VH domain
[4]
  Kd: 0.223 nM
  koff: 0.000126 s⁻¹
  kon: 565000 M⁻¹ s⁻¹
[5]
  Cell assay IC50 (nM), IL-17A-induced IL6 release from HT1080: 3.25 nM

B13: Clone 1.13 (VHH)
VHH: EVQLVESGGGLVQPGGSLRLSCAASGFTFSSYGMYWVRQAPGKGLEWVASIEQDGSEKYYVDSVKGRFTISRDNAKNSLYLQMNSLRAEDTAVYYCAKGEILPLYFDYWGQGTLVTVSS
notes: Human single VH domain
[4]
  Kd: 0.84 nM
  koff: 0.000515 s⁻¹
  kon: 614000 M⁻¹ s⁻¹
[5]
  Cell assay IC50 (nM), IL-17A-induced IL6 release from HT1080: 1.2 nM

B14: Clone 1.12 (VHH)
VHH: QVQLVESGGGLVQPGGSLRLSCAASGFTFSSYGMYWVRQAPGKGLEWVAKIEQDGSEEYYVDSVKGRFTISRDNAKNSLYLQMNSLRAEDTAVYYCAKGEILPLYFDYWGQGTLVTVSS
notes: Human single VH domain
[4]
  Kd: 0.724 nM
  koff: 0.00053 s⁻¹
  kon: 732000 M⁻¹ s⁻¹
[5]
  Cell assay IC50 (nM), IL-17A-induced IL6 release from HT1080: 1.4 nM

B15: Clone 1.9 (VHH)
VHH: QVQLVESGGGLVQPGGSLRLSCAASGFTFSSYGMYWVRQAPGKGLEWVAEIKQDGSEKYYVDSVKGRFTISRDNAKNSLYLQMNSLRAEDTAVYYCAKGEILPLYFDYWGQGTLVTVSS
notes: Human single VH domain
[4]
  Kd: 0.529 nM
  koff: 0.000464 s⁻¹
  kon: 877000 M⁻¹ s⁻¹
[5]
  Cell assay IC50 (nM), IL-17A-induced IL6 release from HT1080: 2.4 nM

B16: VH 1.16.1 (clone 1.16 expressed from phagemid vector: with linker residues and His tag) (VHH)
VHH: EVQLVESGGGLVQPGGSLRLSCAASGFTFSSYSMYWVRQAPGKGLEWVAEIKQDGSEQYYVDSVKGRFTISRDNAKNSLYLQMNGLRAEDTAVYYCAKGEILPLYFDYWGQGTLVTVSS
notes: Human single VH domain
[4]
  Kd: 0.216 nM
  koff: 0.000213 s⁻¹
  kon: 986000 M⁻¹ s⁻¹
[7]
  binding result: no binding
[8]
  binding result: no binding
[9]
  binding result: no binding
[5]
  Cell assay IC50 (nM), IL-17A-induced IL6 release from HT1080: 1.4 nM

B17: VH 1.18.1 (clone 1.18 expressed from phagemid vector: with linker residues and His tag) (VHH)
VHH: EVQLVESGGGLVQPGGSLRLSCAASGFTFSSYSMYWVRQAPGKGLEWVAEIKQDGSVQYYVGGVKGRFTISRDNAKNSLYLQMNSLRAEDTAVYYCAKGEILPLYFDYWGQGTLVTVSS
notes: Human single VH domain
[4]
  Kd: 0.366 nM
  koff: 0.000479 s⁻¹
  kon: 1.31e+06 M⁻¹ s⁻¹
[5]
  Cell assay IC50 (nM), IL-17A-induced IL6 release from HT1080: 1.04 nM

B18: VH 1.21.1 (clone 1.21 expressed from phagemid vector: with linker residues and His tag) (VHH)
VHH: EVQLVESGGGLVLPGGSLRLSCAASGFTFSSYSMYWVRQAPGKGLEWVAEIKQDGSEQYYVDSVKGRFTISRDNAKNSLYLQMNSLRAEDTAVYYCAKGEILPLYFDYWGQGTLVTVSS
notes: Human single VH domain
[4]
  Kd: 0.259 nM
  koff: 0.000205 s⁻¹
  kon: 792000 M⁻¹ s⁻¹
[5]
  Cell assay IC50 (nM), IL-17A-induced IL6 release from HT1080: 2.05 nM

B19: VH 1.17.1 (clone 1.17 expressed from phagemid vector: with linker residues and His tag) (VHH)
VHH: EVQLVESGGGLVQPGGSLRLSCAASGFTFSSYSMYWVRQAPGKGLEWVAEIKPTGSVQYYVSDVKGRFTISRDNAKNSLYLQMNSLRAEDTAVYYCAKGEILPLYFDYWGQGTLVTVSS
notes: Human single VH domain
[4]
  Kd: 0.5 nM
  koff: 0.000462 s⁻¹
  kon: 923000 M⁻¹ s⁻¹
[5]
  Cell assay IC50 (nM), IL-17A-induced IL6 release from HT1080: 1.91 nM

B20: VH 1.2.3 (clone 1.2 with C terminal extension) (VHH)
VHH: EVQLVESGGGLVQPGGSLRLSCAASGFTFSSYSMYWVRQAPGKGLEWVAEIKQDGSVQYYVSDVKGRFTISRDNAKNSLYLQMNSLRAEDTAVYYCAKGEILPLYFDYWGQGTLVTVSS
notes: Human single VH domain
[10]
  Kd: 0.62 nM
  koff: 0.000465 s⁻¹
  kon: 748000 M⁻¹ s⁻¹
